Publication doi:10.1101/2023.04.13.536796

Target: SEL1L S658P, endogenous, liver of knock-in mice (mouse (endogenous in liver)) (UniProt Q9Z2G6)
Test: co-IP

Chain of UniProt Q9Z2G6 (Q9Z2G6 22-790, stated change not applied): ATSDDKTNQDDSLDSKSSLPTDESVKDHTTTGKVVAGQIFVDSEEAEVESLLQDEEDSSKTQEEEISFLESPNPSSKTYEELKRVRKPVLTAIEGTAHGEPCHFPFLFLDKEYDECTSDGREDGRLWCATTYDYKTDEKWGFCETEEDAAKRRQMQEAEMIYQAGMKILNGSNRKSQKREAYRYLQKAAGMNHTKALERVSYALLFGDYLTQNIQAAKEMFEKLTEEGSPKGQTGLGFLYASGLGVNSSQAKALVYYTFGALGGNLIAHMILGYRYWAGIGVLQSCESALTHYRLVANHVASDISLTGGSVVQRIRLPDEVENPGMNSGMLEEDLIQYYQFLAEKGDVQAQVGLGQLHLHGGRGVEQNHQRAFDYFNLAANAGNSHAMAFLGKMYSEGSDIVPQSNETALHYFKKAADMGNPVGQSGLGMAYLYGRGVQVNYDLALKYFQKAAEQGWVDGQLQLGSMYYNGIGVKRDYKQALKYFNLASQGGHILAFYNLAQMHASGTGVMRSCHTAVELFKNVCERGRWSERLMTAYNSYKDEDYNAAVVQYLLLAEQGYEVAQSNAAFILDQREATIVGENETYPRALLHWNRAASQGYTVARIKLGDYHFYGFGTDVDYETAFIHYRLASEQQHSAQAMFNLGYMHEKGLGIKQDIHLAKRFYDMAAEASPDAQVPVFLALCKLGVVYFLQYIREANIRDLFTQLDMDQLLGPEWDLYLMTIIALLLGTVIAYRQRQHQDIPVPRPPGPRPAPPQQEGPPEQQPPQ

“HRD1, endogenous, mouse liver (from UniProt Q9DBY1 1-612) (natural protein)” showed a fold reduction of co-precipitated HRD1 against WT livers of 5 fold.
